{"source": "paper PMC4710668", "about": "“Bioactivation of food genotoxicants 5-hydroxymethylfurfural and furfuryl alcohol by sulfotransferases from human, mouse and rat: a comparative study” (Archives of Toxicology, 2014)", "assay_in_all_cases": "HMF sulfoconjugation assay", "details_in_all_cases": "other: catalytic efficiency of HMF sulfoconjugation; pH 7.4", "key": {"O=Cc1ccc(CO)o1 [1]": {"test_system": "T1, O=Cc1ccc(CO)o1", "T1 construct": "made in house; host or cells: Salmonella typhimurium TA1538 (cytosolic fraction, not purified)", "assay_type": "biochemical, human", "protocol": "(§1) Cytosolic fractions containing individual SULT forms were prepared from transgenic S. typhimurium TA1538. Table S1 in the Supplementary Material provides a summary of the thirty SULTs used in the current study together with references describing the cloning of the respective S. typhimurium TA1538 strains. The expressed SULT forms are denoted with the prefixes h, m and r for human, mouse and rat enzymes, respectively. Bacteria were grown in Luria Broth medium containing ampicillin (100 µg/ml) by stirring for 8 h at 200 revolutions/min at 37 °C. The bacterial suspensions were centrifuged at 5,000 g for 10 min. […] The protein concentrations were determined according to a bicinchoninic acid (BCA) assay protocol. […]\n(§2) The reactions were conducted in mixtures of 100 µl containing 25–200 µg protein, 50 mM potassium phosphate buffer (pH 7.4), 5 mM MgCl2, 50 µM PAPS and different concentrations of HMF at 37 °C. Preliminary experiments ensured that measurements were recorded under ‘linear’ conditions, i.e., doubling of protein concentration or incubation time was doubling the amount of sulfate ester formed. […]\n(§3) SMF concentrations of the clear supernatants were analyzed by UPLC-MS/MS. The protocol was adapted from the quantification of SMF in plasma samples of HMF-treated mice (Monien et al. [2009]). […]"}, "O=Cc1ccc(CO)o1 [2]": {"test_system": "T2, O=Cc1ccc(CO)o1", "T2 construct": "made in house; host or cells: Salmonella typhimurium TA1538 (cytosolic fraction, enzyme not purified)", "assay_type": "biochemical, mouse", "protocol": "as §1, §2, §3"}, "O=Cc1ccc(CO)o1 [3]": {"test_system": "T2, O=Cc1ccc(CO)o1", "assay_type": "biochemical, rat", "protocol": "as §1, §2, §3"}}}
{"substance": "hSULT1B1 (Homo sapiens)", "values": [{"measurement": "kcat/Km", "setting": "O=Cc1ccc(CO)o1 [1]", "value": 0.31, "unit": "M⁻¹ s⁻¹"}]}
{"substance": "mSult1b1 (Mus musculus)", "values": [{"measurement": "kcat/Km", "setting": "O=Cc1ccc(CO)o1 [2]", "value": 0.36, "unit": "M⁻¹ s⁻¹"}]}
{"substance": "rSult1b1 (Rattus norvegicus)", "values": [{"measurement": "kcat/Km", "setting": "O=Cc1ccc(CO)o1 [3]", "value": 0.09, "unit": "M⁻¹ s⁻¹"}]}
